Test results reported in paper PMC12077149 (mBio, 2025).

Molecular target: the molecule itself
Experiment: SEC; 24 mL Superdex-200, 150 mM NaCl, 50 mM Tris-HCl pH 8.0; MW estimated from a linear fit of MW standards

B1: 6×His-PqsE (wild type, P. aeruginosa) (enzyme)
chain: MLRLSAPGQLDDDLCLLGDVQVPVFLLRLGEASWALVEGGISRDAELVWADLCRWVADPSQVHYWLITHKHYDHCGLLPYLCPRLPNVQVLASERTCQAWKSESAVRVVERLNRQLLRAEQRLPEACAWDALPVRAVADGEWLELGPRHRLQVIEAHGHSDDHVVFYDVRRRRLFCGDALGEFDEAEGVWRPLVFDDMEAYLESLERLQRLPTLLQLIPGHGGLLRGRLAADGAESAYTECLRLCRRLLWRQSMGESLDELSEELHRAWGGQSVDFLPGELHLGSMRRMLEILSRQALPLD
notes: also called WT PqsE
stoichiometry N: 2
